Reference: the Human Domainome abundance scans (Beltran et al. 2025)
± gives the uncertainty stated by the source.

B1: Telomeric repeat-binding factor 2, residues 489 to 542; numbered along this chain, Q15554 (parent)
chain: KQKWTVEESEWVKAGVQKYGEGNWAAISKNYPFVNRTAVMIKDRWRTMKRLGMN

Variants of: B1
Assay: abundance fitness (aPCA) (normalised: wild type 0, dead -1); higher = more abundant; growth selection in yeast, the domain comes from the species named
Settings: Homo sapiens

Row | Variant | abundance fitness
1 | R46N | 0.047 ± 0.17
2 | R46Y | 0.181 ± 0.072
3 | R46Q | -0.004 ± 0.12
4 | R46E | 0.204 ± 0.09
5 | R46T | 0.136 ± 0.084
6 | R46F | 0.073 ± 0.067
7 | R46L | 0.054 ± 0.049
8 | R46M | 0.325 ± 0.089
9 | R46A | 0.106 ± 0.069
10 | R46K | -0.007 ± 0.2
11 | R46S | 0.043 ± 0.06
12 | R46I | 0.015 ± 0.12
13 | R46P | -0.828 ± 0.41
14 | R46D | -0.195 ± 0.13
15 | R46H | 0.011 ± 0.12
16 | V34T | 0.193 ± 0.12
17 | V34M | 0.208 ± 0.11
18 | V34K | -0.304 ± 0.21
19 | V34S | -0.172 ± 0.04
20 | V34W | -0.366 ± 0.12
21 | V34N | -0.564 ± 0.22
22 | V34Y | -0.331 ± 0.17
23 | V34Q | 0.134 ± 0.17
24 | V34L | -0.057 ± 0.071

Row | Variant | abundance fitness
25 | V34P | -0.49 ± 0.092
26 | M48W | -0.359 ± 0.12
27 | M48S | -0.95 ± 0.2
28 | M48L | -0.177 ± 0.048
29 | M48G | -1.02 ± 0.1
30 | M48V | -0.463 ± 0.077
31 | M48F | -0.688 ± 0.34
32 | M48R | -1 ± 0.16
33 | M48T | -0.635 ± 0.16
34 | M48C | -0.912 ± 0.28
35 | M48P | -0.886 ± 0.069
36 | M48I | -0.395 ± 0.092
37 | M48E | -0.674 ± 0.24
38 | M48Y | -0.696 ± 0.24
39 | M48A | -0.821 ± 0.17
40 | M48Q | -0.64 ± 0.15
41 | M48N | -0.376 ± 0.099
42 | M48K | -0.978 ± 0.44
43 | M48D | -0.507 ± 0.28
44 | R36V | -0.4 ± 0.051
45 | R36K | 0.228 ± 0.098
46 | R36T | -0.853 ± 0.25
47 | R36I | -0.685 ± 0.33
48 | R36H | -0.649 ± 0.28

Row | Variant | abundance fitness
49 | R36Q | -0.897 ± 0.28
50 | R36W | -0.95 ± 0.14
51 | R36A | -0.367 ± 0.069
52 | R36G | -0.816 ± 0.051
53 | R36C | -0.495 ± 0.12
54 | R36S | -0.654 ± 0.086
55 | R36M | -0.693 ± 0.24
56 | R36Y | -0.614 ± 0.25
57 | T37V | -0.461 ± 0.085
58 | T37P | -0.404 ± 0.12
59 | T37R | -0.999 ± 0.093
60 | T37C | -0.724 ± 0.14
61 | T37K | -0.789 ± 0.12
62 | T37D | -0.247 ± 0.082
63 | T37M | -0.974 ± 0.27
64 | T37I | -0.689 ± 0.17
65 | T37N | -0.614 ± 0.16
66 | T37Q | -0.903 ± 0.26
67 | T37G | -0.668 ± 0.063
68 | T37Y | -0.967 ± 0.41
69 | T37F | -0.629 ± 0.15
70 | T37L | -0.256 ± 0.054
71 | I41F | -0.616 ± 0.096
72 | I41C | -0.692 ± 0.15

Row | Variant | abundance fitness
73 | I41A | -1.02 ± 0.12
74 | I41E | -0.975 ± 0.17
75 | I41W | -1.01 ± 0.34
76 | I41N | -0.945 ± 0.15
77 | I41R | -1.16 ± 0.15
78 | I41T | -0.786 ± 0.28
79 | I41D | -0.673 ± 0.16
80 | I41G | -1.06 ± 0.1
81 | I41V | -0.392 ± 0.056
82 | I41S | -1.13 ± 0.38
83 | G52T | -0.1 ± 0.24
84 | G52I | -0.019 ± 0.065
85 | G52K | -0.149 ± 0.13
86 | G52H | -0.215 ± 0.13
87 | G52R | -0.119 ± 0.059
88 | G52P | 0.243 ± 0.1
89 | G52Q | -0.201 ± 0.11
90 | G52L | -0.195 ± 0.054
91 | G52W | -0.449 ± 0.11
92 | G52A | -0.304 ± 0.085
93 | G52F | -0.223 ± 0.059
94 | G52Y | -0.485 ± 0.19
95 | G52C | -0.087 ± 0.061
96 | G52V | 0.004 ± 0.076

Row | Variant | abundance fitness
97 | G52E | -0.071 ± 0.1
98 | G52D | -0.011 ± 0.13
99 | G52S | -0.358 ± 0.086
100 | G52N | 0.049 ± 0.12
101 | N35E | -0.185 ± 0.11
102 | N35S | -0.27 ± 0.041
103 | N35G | -0.259 ± 0.057
104 | N35W | -0.588 ± 0.13
105 | N35R | -0.317 ± 0.083
106 | N35T | -0.476 ± 0.082
107 | N35I | -0.758 ± 0.14
108 | N35F | -1.14 ± 0.26
109 | N35P | -1.09 ± 0.34
110 | N35C | -0.71 ± 0.18
111 | N35Q | 0.215 ± 0.12
112 | N35V | -0.643 ± 0.06
113 | N35M | -0.555 ± 0.12
114 | N35H | -0.277 ± 0.35
115 | N35K | -0.222 ± 0.21
116 | N35Y | -0.375 ± 0.15
117 | A38R | -0.575 ± 0.075
118 | A38F | -0.334 ± 0.16
119 | A38K | -0.297 ± 0.1
120 | A38D | -0.276 ± 0.08

Row | Variant | abundance fitness
121 | A38S | -0.204 ± 0.054
122 | A38T | 0.188 ± 0.18
123 | A38L | -0.372 ± 0.08
124 | A38W | 0.013 ± 0.068
125 | A38G | -0.371 ± 0.044
126 | A38V | -0.123 ± 0.047
127 | A38Q | -0.15 ± 0.11
128 | A38C | -0.336 ± 0.1
129 | A38H | -0.413 ± 0.19
130 | A38P | 0.014 ± 0.054
131 | A38E | -0.126 ± 0.092
132 | T47A | 0.059 ± 0.065
133 | T47F | -0.658 ± 0.2
134 | T47Q | 0.042 ± 0.12
135 | T47Y | 0.015 ± 0.047
136 | T47I | -0.094 ± 0.1
137 | T47V | -0.157 ± 0.074
138 | T47M | -0.18 ± 0.05
139 | T47C | -0.083 ± 0.11
140 | T47E | 0.177 ± 0.071
141 | T47R | -0.204 ± 0.048
142 | T47D | 0.145 ± 0.12
143 | T47K | -0.05 ± 0.058
144 | T47S | -0.017 ± 0.079

Row | Variant | abundance fitness
145 | T47P | -0.67 ± 0.19
146 | T47W | -0.276 ± 0.065
147 | T47N | -0.281 ± 0.38
148 | L51M | -0.051 ± 0.065
149 | L51E | 0.283 ± 0.075
150 | L51G | -0.035 ± 0.052
151 | L51H | 0.031 ± 0.4
152 | L51C | -0.171 ± 0.096
153 | L51V | 0.006 ± 0.05
154 | L51F | -0.355 ± 0.16
155 | L51I | -0.241 ± 0.13
156 | L51Y | -0.063 ± 0.12
157 | L51S | -0.025 ± 0.054
158 | L51Q | 0.036 ± 0.064
159 | L51A | -0.043 ± 0.08
160 | L51T | 0.101 ± 0.09
161 | L51W | -0.05 ± 0.073
162 | L51P | -0.394 ± 0.063
163 | L51D | -0.259 ± 0.13
